According to publication PMC10683472, “Deep Learning-Driven Library Design for the De Novo Discovery of Bioactive Thiopeptides” (ACS Central Science, 2023):

What was measured:
[1] = target: T1, IRAK4 (Homo sapiens, UniProt Q9NWZ3); test: mRNA display affinity selection against IRAK4, NGS abundance; assay type: binding; design: acids 1-460; NP_057207.2) was purchased from Carna Biosciences; purchased Carna Biosciences (Kobe, Japan); details: Top100 selection hits, NGS
T1 sequence (Q9NWZ3 1-460): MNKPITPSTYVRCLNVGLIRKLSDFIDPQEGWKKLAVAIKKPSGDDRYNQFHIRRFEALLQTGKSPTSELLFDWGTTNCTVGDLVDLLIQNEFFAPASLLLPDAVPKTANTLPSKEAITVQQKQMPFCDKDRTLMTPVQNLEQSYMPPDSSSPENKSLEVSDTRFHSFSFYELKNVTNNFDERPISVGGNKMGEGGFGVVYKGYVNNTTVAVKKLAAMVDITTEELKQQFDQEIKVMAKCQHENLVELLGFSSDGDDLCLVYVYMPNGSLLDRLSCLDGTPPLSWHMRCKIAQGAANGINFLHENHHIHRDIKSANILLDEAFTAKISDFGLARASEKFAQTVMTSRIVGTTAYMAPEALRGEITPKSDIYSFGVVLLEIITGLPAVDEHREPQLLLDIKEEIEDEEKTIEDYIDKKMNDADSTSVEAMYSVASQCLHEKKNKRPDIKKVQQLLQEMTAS

[2] = target: T2, TLR10 (Homo sapiens, UniProt Q9BXR5); test: mRNA display affinity selection against TLR10, NGS abundance; assay type: binding; design: Chimera protein (extracellular domain, amino acid 20-576;); Fc (chimera); purchased R&D system #6619-TR-050; details: Top100 selection hits, NGS
T2 sequence (Q9BXR5 20-576): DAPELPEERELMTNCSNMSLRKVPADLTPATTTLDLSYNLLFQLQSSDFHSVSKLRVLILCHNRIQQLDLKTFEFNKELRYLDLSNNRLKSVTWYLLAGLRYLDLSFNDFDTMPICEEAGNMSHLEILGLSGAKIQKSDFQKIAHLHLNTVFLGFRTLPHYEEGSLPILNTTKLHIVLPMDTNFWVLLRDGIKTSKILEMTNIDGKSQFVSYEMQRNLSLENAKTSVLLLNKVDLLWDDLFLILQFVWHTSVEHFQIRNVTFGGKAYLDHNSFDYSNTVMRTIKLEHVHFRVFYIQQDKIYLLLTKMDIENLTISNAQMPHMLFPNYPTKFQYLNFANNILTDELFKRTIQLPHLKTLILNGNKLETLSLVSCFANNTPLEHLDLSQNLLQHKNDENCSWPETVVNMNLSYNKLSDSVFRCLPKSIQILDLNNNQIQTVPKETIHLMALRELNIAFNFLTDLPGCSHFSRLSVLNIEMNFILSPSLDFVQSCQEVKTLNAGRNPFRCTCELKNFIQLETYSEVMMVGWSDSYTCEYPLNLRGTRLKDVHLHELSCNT

| Sequence | Library fraction ([1]; IRAK4 selection pulldown (+)) | Raw reads ([1]; IRAK4 selection pulldown (+)) | Library fraction ([1]; IRAK4 selection pulldown (-)) | Raw reads ([1]; IRAK4 selection pulldown (-)) | Library fraction ([2]; TLR10 selection pulldown (+)) | Raw reads ([2]; TLR10 selection pulldown (+)) | Library fraction ([2]; TLR10 selection pulldown (-)) | Raw reads ([2]; TLR10 selection pulldown (-)) |
| --- | --- | --- | --- | --- | --- | --- | --- | --- |
| AIRWKNRNYK | 0.0009 | 95 | 0.00032 | 43 | – | – | – | – |
| ALLWRRRNYH | 0.0006 | 61 | 0.00021 | 28 | – | – | – | – |
| AMLWKRRLWR | 0.0005 | 57 | 0.00051 | 68 | – | – | – | – |
| AMRWRNRCYK | 0.0001 | 14 | – | – | – | – | – | – |
| AMSLYWARRRPH | 0.0028 | 304 | 0.00857 | 1144 | – | – | – | – |
| AQRWRQKCYK | 0.0002 | 19 | – | – | – | – | – | – |
| AQRWRRRCYH | 0.0008 | 85 | 0.00051 | 68 | – | – | – | – |
| AQYWKRRLWR | 0.0001 | 9 | – | – | – | – | – | – |
| ARLWRRRIYQ | 0.0001 | 11 | 0.00049 | 66 | – | – | – | – |
| CQCWNRRNWT | 0.0003 | 35 | 0.00037 | 49 | – | – | – | – |
| CQRIGRRNYS | – | – | 0.0001 | 14 | – | – | – | – |
| CQRWKRRCYM | 0.0007 | 76 | 0.00053 | 71 | – | – | – | – |
| GMKRQFITWHWT | – | – | 7e-5 | 10 | – | – | – | – |
| GPILYNRRLFV | 0.0002 | 21 | 0.00014 | 19 | – | – | – | – |
| GPLLWNTRIYC | 0.0001 | 14 | – | – | – | – | – | – |
| GPVIYNRRIYC | 0.0001 | 11 | 0.00021 | 28 | – | – | – | – |
| MMLWKRRMYK | 0.0001 | 15 | – | – | – | – | – | – |
| RILWRRRRYH | 0.0009 | 95 | 0.00044 | 59 | – | – | – | – |
| RLCWKRRNWT | 0.0004 | 47 | 0.00044 | 59 | – | – | – | – |
| RLCYKRRNWQ | – | – | 0.00013 | 17 | – | – | – | – |
| RLFWKRRRYA | 0.0004 | 42 | 0.00016 | 21 | – | – | – | – |
| RLLWKHRLYA | – | – | 8e-5 | 11 | – | – | – | – |
| RLLWKRRNYQ | 0.0002 | 25 | 0.00025 | 33 | – | – | – | – |
| RLLWRRRNYA | 0.0009 | 98 | 0.00106 | 142 | – | – | – | – |

| Sequence | Library fraction ([1]; IRAK4 selection pulldown (+)) | Raw reads ([1]; IRAK4 selection pulldown (+)) | Library fraction ([1]; IRAK4 selection pulldown (-)) | Raw reads ([1]; IRAK4 selection pulldown (-)) | Library fraction ([2]; TLR10 selection pulldown (+)) | Raw reads ([2]; TLR10 selection pulldown (+)) | Library fraction ([2]; TLR10 selection pulldown (-)) | Raw reads ([2]; TLR10 selection pulldown (-)) |
| --- | --- | --- | --- | --- | --- | --- | --- | --- |
| RMLWKRRMWH | 0.0011 | 118 | 0.00041 | 55 | – | – | – | – |
| RQRWRGRKYH | 0.0001 | 8 | 0.00011 | 15 | – | – | – | – |
| RQRWRSRDYA | – | – | 8e-5 | 11 | – | – | – | – |
| RTFWRRRRYH | 0.0004 | 44 | 0.00039 | 52 | – | – | – | – |
| RTRWKCKMYH | 0.0002 | 20 | – | – | – | – | – | – |
| RTYWKRRCYA | 0.0076 | 814 | 0.00332 | 444 | – | – | – | – |
| RVLWKKRNYA | 0.0004 | 46 | 0.00019 | 26 | – | – | – | – |
| SARWRRRNYS | – | – | 0.00011 | 15 | – | – | – | – |
| SIFWRRRIYK | 0.002 | 228 | 0.00048 | 64 | – | – | – | – |
| SILWKKHIYK | 0.0035 | 369 | 0.00093 | 124 | – | – | – | – |
| SILWKKRVWK | 0.016 | 1700 | 0.009 | 1218 | – | – | – | – |
| SIMWKRRVFK | 0.0001 | 9 | 8e-5 | 11 | – | – | – | – |
| SIVWKRRIYR | 0.005 | 541 | 0.00216 | 289 | – | – | – | – |
| SIYWKRRRYK | 0.0001 | 11 | – | – | – | – | – | – |
| SLLWHRRIYC | 0.0002 | 19 | – | – | – | – | – | – |
| SLLWKKRMYK | 0.0009 | 95 | 0.00027 | 36 | – | – | – | – |
| SLLWKQRVWK | 0.005 | 525 | 0.00324 | 433 | – | – | – | – |
| SLLWKRRCYN | 0.0038 | 409 | 0.00172 | 230 | – | – | – | – |
| SLLWKRRICR | 0.0006 | 65 | 0.00016 | 21 | – | – | – | – |
| SLLWKRRIMK | 0.180 | 19248 | 0.066 | 8762 | – | – | – | – |
| SLLWKRRMMK | 0.0001 | 11 | – | – | – | – | – | – |
| SLLWKRRVYC | 0.0007 | 78 | 0.00057 | 76 | – | – | – | – |
| SLLWKRRVYT | 0.0002 | 17 | 0.0001 | 14 | – | – | – | – |
| SLLWRKRIYR | 0.003 | 312 | 0.00109 | 146 | – | – | – | – |

| Sequence | Library fraction ([1]; IRAK4 selection pulldown (+)) | Raw reads ([1]; IRAK4 selection pulldown (+)) | Library fraction ([1]; IRAK4 selection pulldown (-)) | Raw reads ([1]; IRAK4 selection pulldown (-)) | Library fraction ([2]; TLR10 selection pulldown (+)) | Raw reads ([2]; TLR10 selection pulldown (+)) | Library fraction ([2]; TLR10 selection pulldown (-)) | Raw reads ([2]; TLR10 selection pulldown (-)) |
| --- | --- | --- | --- | --- | --- | --- | --- | --- |
| SLLWRRRVYK | 0.080 | 8519 | 0.046 | 6174 | – | – | – | – |
| SLLYKRRIYK | 0.044 | 4704 | 0.026 | 3431 | – | – | – | – |
| SLRWKNRNHK | 0.0006 | 62 | 0.00013 | 17 | – | – | – | – |
| SLRWKRRIWS | – | – | 9e-5 | 12 | – | – | – | – |
| SLYWKSRIWR | 0.0026 | 283 | 0.00072 | 96 | – | – | – | – |
| SMERKAITWLWT | – | – | 0.00019 | 25 | – | – | – | – |
| SMERQFITWHWT | – | – | 0.00013 | 17 | – | – | – | – |
| SMHRRYITWRWT | – | – | 0.115 | 15412 | – | – | – | – |
| SMKRKFITWHWT | – | – | 7e-5 | 10 | – | – | – | – |
| SMKRPFITWHWT | – | – | 9e-5 | 12 | – | – | – | – |
| SMKRQFITRHWT | – | – | 7e-5 | 9 | – | – | – | – |
| SMKRQFITWHWT | – | – | 0.376 | 50248 | – | – | – | – |
| SMKRQFITWRWT | – | – | 0.00015 | 20 | – | – | – | – |
| SMKRQLITWHWT | – | – | 0.00037 | 50 | – | – | – | – |
| SMKRRFITWHWT | – | – | 8e-5 | 11 | – | – | – | – |
| SMLFKRRIYK | 0.211 | 22521 | 0.165 | 22079 | – | – | – | – |
| VGQVLVKSS | – | – | – | – | 0.00061 | 59 | 0.00086 | 102 |
| VGRVYIKSS | – | – | – | – | 0.00258 | 251 | 0.00364 | 434 |
| VGYVLVKSS | – | – | – | – | 0.00033 | 32 | – | – |
| VQLHRWGLRM | – | – | – | – | 0.00032 | 31 | – | – |
| WCGATLYSSIS | – | – | – | – | 0.00024 | 23 | – | – |
| WPGSMARDSIS | – | – | – | – | 0.013 | 1282 | 0.018 | 2179 |
